Data: patent publication US20060259987A1 (UNIVERSITY OF UTAH RESEARCH FOUNDATION, published 2006)
Substitutions are numbered along the chain they refer to. Names may count otherwise. Blank lines part the entries; values can stand above or below the binder they belong to.

Assays:
thrombin [1] = biological target: T1, thrombin (human, UniProt P00734 328-622); assay: cell-based or functional assay
factor Xa [2] = biological target: T2, factor Xa (human, UniProt P00742 41-179; P00742 235-488, limits assumed); assay: cell-based or functional assay
T2 sequence (P00742 41-179 limits assumed, form in doubt, chain 1 of 2): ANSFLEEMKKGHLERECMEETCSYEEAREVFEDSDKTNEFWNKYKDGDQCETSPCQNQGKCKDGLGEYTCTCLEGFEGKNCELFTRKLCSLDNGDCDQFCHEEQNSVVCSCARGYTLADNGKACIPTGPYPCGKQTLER
T2 sequence (P00742 235-488 limits assumed, form in doubt, chain 2 of 2): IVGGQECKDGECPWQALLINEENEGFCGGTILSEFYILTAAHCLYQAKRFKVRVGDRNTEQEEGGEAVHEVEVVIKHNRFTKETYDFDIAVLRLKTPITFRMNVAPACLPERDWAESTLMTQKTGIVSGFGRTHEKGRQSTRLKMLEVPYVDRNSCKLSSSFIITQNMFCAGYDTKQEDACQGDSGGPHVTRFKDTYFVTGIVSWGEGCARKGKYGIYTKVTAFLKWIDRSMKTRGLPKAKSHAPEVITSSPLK

factor Xa [3] = biological target: T2, factor Xa; assay: heparin cofactor assay, HCA expt #2; ATIII titrated on 10 nM fXa + 50 ug/ml UFH, chromogenic readout
Procedure: (§1) After 3 minutes, the reactions were quenched with polybrene and chromogenic substrate S2238 (thrombin) or S2765 (fXa), and the initial rate of chromophore production (405 nm) recorded to obtain a measurement residual, uninhibited thrombin or factor Xa. IC50s were determined from plots of ATIII concentration vs. percent residual target enzyme activity.

thrombin [4] = biological target: T1, thrombin; assay: heparin cofactor assay, HCA expt #2; ATIII titrated on 10 nM thrombin + 50 ug/ml UFH, chromogenic readout
Procedure: as §1

human thrombin [5] = biological target: T3, human thrombin (human, UniProt P00734 328-622); assay: cell-based or functional assay
human factor Xa = human factor Xa (human, UniProt P00742 41-179; P00742 235-488, limits assumed); assay: cell-based or functional assay
Sequence of human factor Xa (P00742 41-179 limits assumed, chain 1 of 2): as the sequence (P00742 41-179 limits assumed, form in doubt, chain 1 of 2) above
Sequence of human factor Xa (P00742 235-488 limits assumed, chain 2 of 2): as the sequence (P00742 235-488 limits assumed, form in doubt, chain 2 of 2) above

[6] = biological target: T4, human neutrophil elastase (human, UniProt P08246 30-247, limits assumed); assay: cell-based or functional assay
T4 sequence (looked up): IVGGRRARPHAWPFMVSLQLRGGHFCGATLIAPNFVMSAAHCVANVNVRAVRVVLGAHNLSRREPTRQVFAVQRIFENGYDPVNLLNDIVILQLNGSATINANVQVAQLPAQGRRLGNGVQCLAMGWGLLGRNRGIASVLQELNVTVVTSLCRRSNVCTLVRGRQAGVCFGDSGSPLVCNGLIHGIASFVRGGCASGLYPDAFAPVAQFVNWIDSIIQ

[7] = biological target: T5, human neutrophil cathepsin G (human, UniProt P08311 21-244); assay: cell-based or functional assay
T5 sequence (looked up): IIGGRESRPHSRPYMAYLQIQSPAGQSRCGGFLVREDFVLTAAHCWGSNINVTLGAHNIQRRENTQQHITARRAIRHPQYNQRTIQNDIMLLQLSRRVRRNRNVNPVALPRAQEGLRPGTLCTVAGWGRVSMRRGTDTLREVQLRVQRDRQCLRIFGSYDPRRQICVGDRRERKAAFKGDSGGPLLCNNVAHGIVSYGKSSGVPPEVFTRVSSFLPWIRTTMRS

human thrombin [8] = biological target: T3, human thrombin; assay: thrombin inhibition rate in the absence of heparin
human thrombin [9] = biological target: T3, human thrombin; assay: thrombin inhibition rate in the presence of heparin (HAH)

B1: 13C.433 (other)
chain: SPVDICTAKPRDIPMNPMCIYRSPEKKATEDEGSEQKIPEATNRRVWELSKANSRFATTFYQHLADSKNDNDNIFLSPLSISTAFAMTKLGACNDTLQQLMEVFKFDTISEKTSDQIHFFFAKLNCRLYRKANKASKLVSANRLFGDKSLTFNETYQDISELVYGAKLQPLDFKENAEQSRAAINKWVSNKTEGRITDVIPSEAINELTVLVLVNTIYFKGLWKSKFSPENTRKELFYKADGESCSASMMYQEGKFRYRRVAEGTQVLELPFKGDDITMVLILPKPEKSLAKVEKELTPEVLQEWLDELEEMMLVVHMPRFRIEDGFSLKEQLQDMGLVDLFSPEKSKLPGIVAEGRDDLYVSDAFHKAFLEVNEEGSEAAASTELELAGRSLNPNRVTFKANRPFLVFIREVPLNTIIFMGRVANPCVK
notes: Made in Drosophila S2 cells (DES) on the S137A background; N-terminus printed as SPVDI---
- rsd. IIa catG; CA expt #7; stg1 conc 200 (thrombin [1]): 5 % of activity without ATIII
- rsd. IIa catG; CA expt #8; stg1 conc 200 (thrombin [1]): 18 % of activity without ATIII
- rsd. IIa hne; CA expt #7; stg1 conc 200 (thrombin [1]): 4 % of activity without ATIII
- rsd. IIa hne; CA expt #8; stg1 conc 200 (thrombin [1]): 20 % of activity without ATIII
- rsd. IIa no add; CA expt #7; stg1 conc 200 (thrombin [1]): 5 % of activity without ATIII
- rsd. IIa no add; CA expt #8; stg1 conc 200 (thrombin [1]): 13 % of activity without ATIII
- rsd. Xa catG; CA expt #7; stg1 conc 200 (factor Xa [2]): 2 % of activity without ATIII
- rsd. Xa catG; CA expt #8; stg1 conc 200 (factor Xa [2]): 1 % of activity without ATIII
- rsd. Xa hne; CA expt #7; stg1 conc 200 (factor Xa [2]): 3 % of activity without ATIII
- rsd. Xa hne; CA expt #8; stg1 conc 200 (factor Xa [2]): 1 % of activity without ATIII
- rsd. Xa no add; CA expt #7; stg1 conc 200 (factor Xa [2]): 4 % of activity without ATIII
- rsd. Xa no add; CA expt #8; stg1 conc 200 (factor Xa [2]): 1 % of activity without ATIII
- IC50 (factor Xa [3]): 30 nM
- IC50 (thrombin [4]): 600 nM

B5: 13C.435 (other)
chain: B1 chain with L388W
notes: as for B1
- rsd. IIa catG; CA expt #7; stg1 conc 200 (thrombin [1]): 5 % of activity without ATIII
- rsd. IIa hne; CA expt #7; stg1 conc 200 (thrombin [1]): 4 % of activity without ATIII
- rsd. IIa no add; CA expt #7; stg1 conc 200 (thrombin [1]): 5 % of activity without ATIII
- rsd. Xa catG; CA expt #7; stg1 conc 200 (factor Xa [2]): 3 % of activity without ATIII
- rsd. Xa hne; CA expt #7; stg1 conc 200 (factor Xa [2]): 3 % of activity without ATIII
- rsd. Xa no add; CA expt #7; stg1 conc 200 (factor Xa [2]): 3 % of activity without ATIII
- IC50 (factor Xa [3]): 34 nM
- IC50 (thrombin [4]): 700 nM

B7: 13C.431 (other)
chain: B1 chain with L388A
notes: Made in Drosophila S2 cells (DES) on the S137A background; N-terminus printed as SPVDI---; primer codon CTC gives L
- rsd. IIa catG; CA expt #7; stg1 conc 200 (thrombin [1]): 5 % of activity without ATIII
- rsd. IIa catG; CA expt #8; stg1 conc 200 (thrombin [1]): 19 % of activity without ATIII
- rsd. IIa hne; CA expt #7; stg1 conc 200 (thrombin [1]): 4 % of activity without ATIII
- rsd. IIa hne; CA expt #8; stg1 conc 200 (thrombin [1]): 25 % of activity without ATIII
- rsd. IIa no add; CA expt #7; stg1 conc 200 (thrombin [1]): 5 % of activity without ATIII
- rsd. IIa no add; CA expt #8; stg1 conc 200 (thrombin [1]): 14 % of activity without ATIII
- rsd. Xa catG; CA expt #7; stg1 conc 200 (factor Xa [2]): 3 % of activity without ATIII
- rsd. Xa catG; CA expt #8; stg1 conc 200 (factor Xa [2]): 1 % of activity without ATIII
- rsd. Xa hne; CA expt #7; stg1 conc 200 (factor Xa [2]): 3 % of activity without ATIII
- rsd. Xa hne; CA expt #8; stg1 conc 200 (factor Xa [2]): 2 % of activity without ATIII
- rsd. Xa no add; CA expt #7; stg1 conc 200 (factor Xa [2]): 3 % of activity without ATIII
- rsd. Xa no add; CA expt #8; stg1 conc 200 (factor Xa [2]): 2 % of activity without ATIII
- IC50 (factor Xa [3]): 45 nM
- IC50 (thrombin [4]): 550 nM

Other lines, results leading:

- IC50 IIa/UFH (HCA #5) (human thrombin [5]): 17 nM
- rsd IIa, no add (CA #51, stg 1 conc 200) (human thrombin [5]): 1%
- IC50 fXa/UFH (HCA #5) (human factor Xa): 14 nM
- rsd Xa, no add (CA #51, stg 1 conc 200) (human factor Xa): 0%
- rsd IIa, HNE (CA #51, stg 1 conc 200) [6]: 1%
- rsd Xa, HNE (CA #51, stg 1 conc 200) [6]: 1%
- rsd IIa, catG (CA #51, stg 1 conc 200) [7]: 1%
- rsd Xa, catG (CA #51, stg 1 conc 200) [7]: -1%
- Kapp, thrombin progressive (human thrombin [8]): 3300 M⁻¹ s⁻¹
- Kapp, thrombin HAH (human thrombin [9]): 6.1e+06 M⁻¹ s⁻¹
B2: LEAQ.504 (other)
chain: B1 chain with E385A, E387N, L388A, A389Q
notes: also called DES.LEAQ.504

- IC50 IIa/UFH (HCA #5) (human thrombin [5]): 18 nM
- rsd IIa, no add (CA #51, stg 1 conc 200) (human thrombin [5]): 1%
- IC50 fXa/UFH (HCA #5) (human factor Xa): 19 nM
- rsd Xa, no add (CA #51, stg 1 conc 200) (human factor Xa): -1%
- rsd IIa, HNE (CA #51, stg 1 conc 200) [6]: 1%
- rsd Xa, HNE (CA #51, stg 1 conc 200) [6]: -3%
- rsd IIa, catG (CA #51, stg 1 conc 200) [7]: 1%
- rsd Xa, catG (CA #51, stg 1 conc 200) [7]: -2%
- Kapp, thrombin progressive (human thrombin [8]): 4100 M⁻¹ s⁻¹
- Kapp, thrombin HAH (human thrombin [9]): 1.1e+07 M⁻¹ s⁻¹
B3: LEAQ.508 (other)
chain: B1 chain with E385A, E387K, L388A, A389Q
notes: also called DES.LEAQ.508

- IC50 IIa/UFH (HCA #5) (human thrombin [5]): 13 nM
- rsd IIa, no add (CA #51, stg 1 conc 200) (human thrombin [5]): 0%
- IC50 fXa/UFH (HCA #5) (human factor Xa): 11 nM
- rsd Xa, no add (CA #51, stg 1 conc 200) (human factor Xa): 1%
- rsd IIa, HNE (CA #51, stg 1 conc 200) [6]: 1%
- rsd Xa, HNE (CA #51, stg 1 conc 200) [6]: 0%
- rsd IIa, catG (CA #51, stg 1 conc 200) [7]: 1%
- rsd Xa, catG (CA #51, stg 1 conc 200) [7]: -2%
- Kapp, thrombin progressive (human thrombin [8]): 3700 M⁻¹ s⁻¹
- Kapp, thrombin HAH (human thrombin [9]): 1.6e+07 M⁻¹ s⁻¹
B4: LEAQ.503 (other)
chain: B1 chain with E385A, E387T, L388A, A389Q
notes: also called DES.LEAQ.503

- IC50 IIa/UFH (HCA #5) (human thrombin [5]): 9 nM
- IC50 fXa/UFH (HCA #5) (human factor Xa): 13 nM
- Kapp, thrombin progressive (human thrombin [8]): 4100 M⁻¹ s⁻¹
- Kapp, thrombin HAH (human thrombin [9]): 1.1e+07 M⁻¹ s⁻¹
B6: LEAQ.506 (other)
chain: B1 chain with E385A, E387H, L388A, A389Q
notes: also called DES.LEAQ.506
